The assay deals with GST-fused N-terminal fragment of human β-spectrin (GST-hNβSp) (human) (UniProt P11277). In words: SPR; Biacore X100; GST-hNβSp (500 nM) captured on a CM5 chip by anti-GST antibody; h4.1R recombinants (GST cleaved) 150-1000 nM as analyte; PBS, 25 °C; regeneration in 10 mM Glycine-Cl pH 2.1.
Chain of UniProt P11277 (P11277 1-527): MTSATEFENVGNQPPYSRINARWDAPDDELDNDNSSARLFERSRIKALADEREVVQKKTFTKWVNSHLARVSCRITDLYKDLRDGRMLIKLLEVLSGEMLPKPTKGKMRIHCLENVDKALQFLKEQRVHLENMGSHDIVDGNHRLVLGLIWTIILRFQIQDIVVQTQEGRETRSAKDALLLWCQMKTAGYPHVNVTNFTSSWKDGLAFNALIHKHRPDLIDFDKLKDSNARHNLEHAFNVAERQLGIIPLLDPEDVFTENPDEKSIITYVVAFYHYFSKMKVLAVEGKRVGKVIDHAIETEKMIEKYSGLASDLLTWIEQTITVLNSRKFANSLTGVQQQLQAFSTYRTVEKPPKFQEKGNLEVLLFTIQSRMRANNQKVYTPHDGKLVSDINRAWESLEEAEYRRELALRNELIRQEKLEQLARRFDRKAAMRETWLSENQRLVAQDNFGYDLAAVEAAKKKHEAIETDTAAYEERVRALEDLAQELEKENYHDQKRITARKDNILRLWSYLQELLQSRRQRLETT

Turning to “human 4.1R with the PE and e14 sequences of alpaca 4.1R (h4.1R[PE14]), cleaved from GST”, the dissociation constant Kd turned out to be 121 nM and the on-rate (kon) came to 55100 M⁻¹ s⁻¹.
For “human protein 4.1R, wild type (h4.1R WT), cleaved from GST (natural protein)” the same measures were 633 nM and 5040 M⁻¹ s⁻¹.

These data come from paper PMC9926112.
